These results are taken from publication PMC9482650, “Quantitative fragmentomics allow affinity mapping of interactomes” (Nature Communications, 2022).

Some targets named below: MAST2, Q6P0Q8; ARHGEF12, Q9NZN5-2; MAGI2_6, Q86UL8; FRMPD2_2, Q68DX3; Inadl_4, Q8NI35; PDLIM1, O00151; CASK, O14936; DLG4_1, P78352; PTPN3, P26045; GRIP2_4, Q9C0E4.
What all share (test): holdup assay
Holding throughout (set-up): key: below the threshold = too weak to quantify, mostly under pKd 3.1 to 4

The next experiment addresses T1, TX1BP3, O14907.
T1 sequence (O14907 10-122, limits assumed, looked up): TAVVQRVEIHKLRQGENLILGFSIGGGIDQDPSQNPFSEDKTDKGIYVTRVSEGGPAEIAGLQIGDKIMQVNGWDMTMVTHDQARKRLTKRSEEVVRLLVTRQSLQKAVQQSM

For the next experiment, the target named is T2, APBA2_2, Q99767.
T2 sequence (Q99767 654-744, limits assumed, looked up): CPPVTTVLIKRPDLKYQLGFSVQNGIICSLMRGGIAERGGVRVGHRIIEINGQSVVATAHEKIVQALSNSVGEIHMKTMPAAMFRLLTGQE

In the next experiment the target is T3, APBA1_2, Q02410.
T3 sequence (Q02410 742-832, limits assumed, looked up): T2 sequence (Q99767 654-744, limits assumed, looked up) with K10R, K15R, A59P, Q65H, A66I, S70A, F84Y, G89A

A further experiment deals with T4, MPP2, Q14168.
T4 sequence (Q14168 180-250, limits assumed, looked up): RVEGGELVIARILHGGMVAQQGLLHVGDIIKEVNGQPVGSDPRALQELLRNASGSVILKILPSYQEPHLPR

A further experiment addresses T5, NHERF3_3, Q5T2W1.
T5 sequence (Q5T2W1 238-333, limits assumed, looked up): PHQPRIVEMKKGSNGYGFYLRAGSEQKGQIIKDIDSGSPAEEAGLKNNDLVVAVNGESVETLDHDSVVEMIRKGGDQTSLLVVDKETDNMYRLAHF

The target in another experiment is T6, MPDZ_5, O75970.
T6 sequence (O75970 695-796, limits assumed, looked up): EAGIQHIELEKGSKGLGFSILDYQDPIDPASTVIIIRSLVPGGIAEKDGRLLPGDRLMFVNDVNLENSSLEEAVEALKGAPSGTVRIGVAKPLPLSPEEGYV

For another experiment, the target named is T7, MPP7, Q5T2T1.
T7 sequence (Q5T2T1 134-230, limits assumed, looked up): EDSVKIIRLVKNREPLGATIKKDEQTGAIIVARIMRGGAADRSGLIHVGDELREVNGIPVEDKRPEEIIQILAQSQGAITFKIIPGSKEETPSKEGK

The next experiment concerns the target T8, SNTB1, Q13884.
T8 sequence (Q13884 107-205, limits assumed, looked up): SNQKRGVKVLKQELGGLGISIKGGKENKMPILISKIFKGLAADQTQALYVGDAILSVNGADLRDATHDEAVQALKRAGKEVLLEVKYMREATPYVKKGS

The next experiment addresses T9, LIN7B, Q9HAP6.
T9 sequence (Q9HAP6 88-185, limits assumed, looked up): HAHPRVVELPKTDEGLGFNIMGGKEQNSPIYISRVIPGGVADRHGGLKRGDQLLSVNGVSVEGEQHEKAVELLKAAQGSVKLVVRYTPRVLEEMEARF

A further experiment addresses T10, SIPA1L2, Q9P2F8.
T10 sequence (Q9P2F8 945-1036, limits assumed, looked up): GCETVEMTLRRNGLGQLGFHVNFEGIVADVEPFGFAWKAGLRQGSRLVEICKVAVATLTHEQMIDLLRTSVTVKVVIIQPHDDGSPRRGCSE

The next experiment deals with T11, ARHGAP21, Q5T5U3.
T11 sequence (Q5T5U3 45-169, limits assumed, looked up): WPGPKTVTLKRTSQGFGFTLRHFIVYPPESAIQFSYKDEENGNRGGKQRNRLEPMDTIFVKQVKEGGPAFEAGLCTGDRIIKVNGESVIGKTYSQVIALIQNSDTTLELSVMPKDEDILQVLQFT

A further experiment addresses T12, PDZD7_3, Q9H5P4.
T12 sequence (Q9H5P4 857-944, limits assumed, looked up): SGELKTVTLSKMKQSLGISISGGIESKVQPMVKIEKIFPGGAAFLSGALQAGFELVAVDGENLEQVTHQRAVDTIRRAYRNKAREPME

The target in the next experiment is T13, GRIP1_5, Q9Y3R0.
T13 sequence (Q9Y3R0 568-668, limits assumed, looked up): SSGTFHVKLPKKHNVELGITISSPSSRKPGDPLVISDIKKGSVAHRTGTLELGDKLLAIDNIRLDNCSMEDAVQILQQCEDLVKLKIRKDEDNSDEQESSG

The next experiment deals with T14, NHERF3_4, Q5T2W1.
T14 sequence (Q5T2W1 373-468, limits assumed, looked up): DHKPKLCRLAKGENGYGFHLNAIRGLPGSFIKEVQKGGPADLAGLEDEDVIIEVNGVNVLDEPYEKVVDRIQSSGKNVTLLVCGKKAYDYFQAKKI

[1] abbreviates: plain residues with an end cap or a label only (N-terminal biotin on a linker: ado-ado).
[2] abbreviates: plain residues with an end cap or a label only (N-terminal biotin on a linker: (peg)3).

Positions count from the first letter of the chain named.

Sequence of Inadl_4, Q8NI35 (Q8NI35 547-651): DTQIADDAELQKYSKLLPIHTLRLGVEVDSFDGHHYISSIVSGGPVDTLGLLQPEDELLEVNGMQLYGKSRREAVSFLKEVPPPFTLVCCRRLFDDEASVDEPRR
Sequence of PTPN3, P26045 (P26045 505-587): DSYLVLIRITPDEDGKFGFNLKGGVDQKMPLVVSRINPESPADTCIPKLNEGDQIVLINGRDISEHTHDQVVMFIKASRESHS
Sequence of PDLIM1, O00151 (O00151 1-87): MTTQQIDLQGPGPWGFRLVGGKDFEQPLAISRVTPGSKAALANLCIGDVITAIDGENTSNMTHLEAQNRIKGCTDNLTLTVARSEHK
Sequence of CASK, O14936 (O14936 487-570): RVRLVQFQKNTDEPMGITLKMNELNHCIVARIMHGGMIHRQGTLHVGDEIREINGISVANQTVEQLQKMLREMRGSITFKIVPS
Sequence of DLG4_1, P78352 (P78352 62-152): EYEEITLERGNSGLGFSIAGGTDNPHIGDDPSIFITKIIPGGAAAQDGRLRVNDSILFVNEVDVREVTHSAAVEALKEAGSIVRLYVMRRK
Sequence of ARHGEF12, Q9NZN5-2 (Q9NZN5 other isoform, or with tags, fused parts or gaps): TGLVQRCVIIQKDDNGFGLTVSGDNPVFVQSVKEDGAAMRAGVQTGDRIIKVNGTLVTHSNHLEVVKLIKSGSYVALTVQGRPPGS
Sequence of MAST2, Q6P0Q8 (Q6P0Q8 1099-1202): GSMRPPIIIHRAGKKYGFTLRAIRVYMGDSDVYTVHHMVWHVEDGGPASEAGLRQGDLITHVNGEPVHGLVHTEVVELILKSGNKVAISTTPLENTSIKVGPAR
Sequence of FRMPD2_2, Q68DX3 (Q68DX3 944-1038): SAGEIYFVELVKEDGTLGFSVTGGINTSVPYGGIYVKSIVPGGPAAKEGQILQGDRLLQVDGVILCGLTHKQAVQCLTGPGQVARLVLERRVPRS
Sequence of MAGI2_6, Q86UL8 (Q86UL8 1141-1229): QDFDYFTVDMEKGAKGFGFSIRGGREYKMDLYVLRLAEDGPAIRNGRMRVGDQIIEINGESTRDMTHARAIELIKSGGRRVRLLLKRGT
Sequence of GRIP2_4, Q9C0E4 (Q9C0E4 446-548): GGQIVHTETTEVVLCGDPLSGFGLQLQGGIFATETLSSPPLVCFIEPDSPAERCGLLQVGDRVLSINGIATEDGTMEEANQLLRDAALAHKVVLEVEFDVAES

As to ELSATVTTDC [TRIP6, Q15654], the negative logarithm of the Kd (pKd) was 3.48 with TX1BP3, O14907 (setting [1]); “below the threshold” with APBA2_2, Q99767 (setting [1]); “below the threshold” with APBA1_2, Q02410 (setting [1]); “below the threshold” in the experiment with MPP2, Q14168 (setting [1]); 3.87 with NHERF3_3, Q5T2W1 (setting [1]); “below the threshold” with MPDZ_5, O75970 (setting [1]). For the same molecule, the negative-log Kd (pKd) with MAST2, Q6P0Q8 (setting [1]) amounted to 4.9; with ARHGEF12, Q9NZN5-2 (setting [1]) it was 4.44; with MAGI2_6, Q86UL8 (setting [1]), 4.24; with MPP7, Q5T2T1 (setting [1]), 3.65; with FRMPD2_2, Q68DX3 (setting [1]), 3.47; with SNTB1, Q13884 (setting [1]), 4.34. Also, the pKd result is “below the threshold” with LIN7B, Q9HAP6 (setting [1]); “below the threshold” in the experiment with SIPA1L2, Q9P2F8 (setting [1]); “below the threshold” with Inadl_4, Q8NI35 (setting [1]); 4.27 in the experiment with ARHGAP21, Q5T5U3 (setting [1]); 3.8 in the experiment with PDZD7_3, Q9H5P4 (setting [1]); “below the threshold” with PDLIM1, O00151 (setting [1]). Also, the pKd result with CASK, O14936 (setting [1]) was “below the threshold”; with DLG4_1, P78352 (setting [1]) it was “below the threshold”; in the experiment with GRIP1_5, Q9Y3R0 (setting [1]), “below the threshold”; with PTPN3, P26045 (setting [1]) it was 4.31; with GRIP2_4, Q9C0E4 (setting [1]), “below the threshold”; in the experiment with NHERF3_4, Q5T2W1 (setting [1]), “below the threshold”.

As to EDPRVEVTQF [SLC22A9, Q8IVM8], the pKd entry with TX1BP3, O14907 (setting [1]) was “below the threshold”; in the experiment with APBA2_2, Q99767 (setting [1]), “below the threshold”; with APBA1_2, Q02410 (setting [1]), “below the threshold”; with MPP2, Q14168 (setting [1]), “below the threshold”; with NHERF3_3, Q5T2W1 (setting [1]), “below the threshold”; in the experiment with MPDZ_5, O75970 (setting [1]), “below the threshold”. For the same molecule, the negative-log Kd (pKd) in the experiment with MAST2, Q6P0Q8 (setting [1]) is 5.4; in the experiment with ARHGEF12, Q9NZN5-2 (setting [1]) it was “below the threshold”; with MAGI2_6, Q86UL8 (setting [1]), 3.87; in the experiment with MPP7, Q5T2T1 (setting [1]), “below the threshold”; in the experiment with FRMPD2_2, Q68DX3 (setting [1]), “below the threshold”; with SNTB1, Q13884 (setting [1]), “below the threshold”. Also, the negative logarithm of the Kd (pKd) with LIN7B, Q9HAP6 (setting [1]) was 3.83; in the experiment with SIPA1L2, Q9P2F8 (setting [1]) it was “below the threshold”; with Inadl_4, Q8NI35 (setting [1]), “below the threshold”; with ARHGAP21, Q5T5U3 (setting [1]), “below the threshold”; with PDZD7_3, Q9H5P4 (setting [1]), 4.23; in the experiment with PDLIM1, O00151 (setting [1]) it was “below the threshold”. Besides, the negative logarithm of the Kd (pKd) entry is “below the threshold” with CASK, O14936 (setting [1]); “below the threshold” with DLG4_1, P78352 (setting [1]); “below the threshold” in the experiment with GRIP1_5, Q9Y3R0 (setting [1]); 4.18 in the experiment with PTPN3, P26045 (setting [1]); “below the threshold” with GRIP2_4, Q9C0E4 (setting [1]); 4.58 with NHERF3_4, Q5T2W1 (setting [1]).

On to QQSMSSADSTQA [SARS-Cov2-N, P0DTC9], for which the pKd entry is recorded as “below the threshold” in the experiment with TX1BP3, O14907 (setting [2]); “below the threshold” in the experiment with APBA2_2, Q99767 (setting [2]); “below the threshold” in the experiment with APBA1_2, Q02410 (setting [2]); “below the threshold” with MPP2, Q14168 (setting [2]); “below the threshold” in the experiment with NHERF3_3, Q5T2W1 (setting [2]); “below the threshold” with MPDZ_5, O75970 (setting [2]). Further, the pKd result in the experiment with MAST2, Q6P0Q8 (setting [2]) is “below the threshold”; with ARHGEF12, Q9NZN5-2 (setting [2]), “below the threshold”; in the experiment with MAGI2_6, Q86UL8 (setting [2]), “below the threshold”; with MPP7, Q5T2T1 (setting [2]), “below the threshold”; in the experiment with FRMPD2_2, Q68DX3 (setting [2]), “below the threshold”; in the experiment with SNTB1, Q13884 (setting [2]), “below the threshold”. Further, the pKd entry is reported as “below the threshold” with LIN7B, Q9HAP6 (setting [2]); “below the threshold” in the experiment with SIPA1L2, Q9P2F8 (setting [2]); “below the threshold” in the experiment with Inadl_4, Q8NI35 (setting [2]); “below the threshold” in the experiment with ARHGAP21, Q5T5U3 (setting [2]); “below the threshold” with PDZD7_3, Q9H5P4 (setting [2]); “below the threshold” with PDLIM1, O00151 (setting [2]). Further, the negative logarithm of the Kd (pKd) entry with CASK, O14936 (setting [2]) was “below the threshold”; with DLG4_1, P78352 (setting [2]) it was “below the threshold”; in the experiment with GRIP1_5, Q9Y3R0 (setting [2]), “below the threshold”; in the experiment with PTPN3, P26045 (setting [2]), “below the threshold”; with GRIP2_4, Q9C0E4 (setting [2]), “below the threshold”; in the experiment with NHERF3_4, Q5T2W1 (setting [2]), “below the threshold”.

Regarding LAHVKHKEQI [AQP3, Q92482], the pKd entry was “below the threshold” in the experiment with TX1BP3, O14907 (setting [1]); “below the threshold” with APBA2_2, Q99767 (setting [1]); “below the threshold” with APBA1_2, Q02410 (setting [1]); “below the threshold” in the experiment with MPP2, Q14168 (setting [1]); “below the threshold” in the experiment with NHERF3_3, Q5T2W1 (setting [1]); “below the threshold” in the experiment with MPDZ_5, O75970 (setting [1]). In addition, the pKd result with MAST2, Q6P0Q8 (setting [1]) is recorded as “below the threshold”; with ARHGEF12, Q9NZN5-2 (setting [1]) it was “below the threshold”; in the experiment with MAGI2_6, Q86UL8 (setting [1]) it was “below the threshold”; with MPP7, Q5T2T1 (setting [1]) it was “below the threshold”; with FRMPD2_2, Q68DX3 (setting [1]), “below the threshold”; in the experiment with SNTB1, Q13884 (setting [1]), “below the threshold”. The pKd result with LIN7B, Q9HAP6 (setting [1]) was “below the threshold”; in the experiment with SIPA1L2, Q9P2F8 (setting [1]), “below the threshold”; with Inadl_4, Q8NI35 (setting [1]), “below the threshold”; with ARHGAP21, Q5T5U3 (setting [1]) it was 3.98; in the experiment with PDZD7_3, Q9H5P4 (setting [1]), “below the threshold”; with PDLIM1, O00151 (setting [1]) it was “below the threshold”. In addition, the negative-log Kd (pKd) entry is “below the threshold” with CASK, O14936 (setting [1]); “below the threshold” with DLG4_1, P78352 (setting [1]); “below the threshold” with GRIP1_5, Q9Y3R0 (setting [1]); “below the threshold” with PTPN3, P26045 (setting [1]); “below the threshold” in the experiment with GRIP2_4, Q9C0E4 (setting [1]); “below the threshold” with NHERF3_4, Q5T2W1 (setting [1]).
